The target in test [1] is T1, recombinant human DLL3 (ELISA coat) (human, UniProt Q9NYJ7 27-492).
T1 sequence: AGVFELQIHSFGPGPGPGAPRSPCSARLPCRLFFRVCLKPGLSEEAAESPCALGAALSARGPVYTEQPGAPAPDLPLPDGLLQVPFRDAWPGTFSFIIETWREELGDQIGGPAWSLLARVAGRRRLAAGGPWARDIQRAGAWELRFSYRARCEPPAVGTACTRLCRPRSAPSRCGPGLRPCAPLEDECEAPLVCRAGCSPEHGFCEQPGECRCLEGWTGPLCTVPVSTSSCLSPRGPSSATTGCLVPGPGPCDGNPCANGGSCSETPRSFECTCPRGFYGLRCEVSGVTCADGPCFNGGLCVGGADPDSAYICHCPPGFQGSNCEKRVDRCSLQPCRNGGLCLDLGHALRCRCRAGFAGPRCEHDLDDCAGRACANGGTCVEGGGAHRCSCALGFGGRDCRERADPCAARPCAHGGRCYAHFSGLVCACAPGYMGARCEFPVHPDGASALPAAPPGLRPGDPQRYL
Description: ELISA, plate coated with recombinant human DLL3 0.5 µg/ml, anti-mouse IgG-HRP. The gist of the method:
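Antibody binding measured on plates coated with recombinant human DLL3 at 0.5 μg/ml, detected with anti-mouse IgG-HRP and TMB substrate. Signals normalized to the matching positive control antibody; EC₅₀ calculated from binding curves.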

Test [2] addresses T2, extracellular domain (ECD) of human DLL3 (AdipoGen Life Sciences) (human, UniProt Q9NYJ7 27-492).
T2 construct: Bought and further purified by size exclusion chromatography; also called hDLL3 ECD; DLL3 ECD
T2 sequence: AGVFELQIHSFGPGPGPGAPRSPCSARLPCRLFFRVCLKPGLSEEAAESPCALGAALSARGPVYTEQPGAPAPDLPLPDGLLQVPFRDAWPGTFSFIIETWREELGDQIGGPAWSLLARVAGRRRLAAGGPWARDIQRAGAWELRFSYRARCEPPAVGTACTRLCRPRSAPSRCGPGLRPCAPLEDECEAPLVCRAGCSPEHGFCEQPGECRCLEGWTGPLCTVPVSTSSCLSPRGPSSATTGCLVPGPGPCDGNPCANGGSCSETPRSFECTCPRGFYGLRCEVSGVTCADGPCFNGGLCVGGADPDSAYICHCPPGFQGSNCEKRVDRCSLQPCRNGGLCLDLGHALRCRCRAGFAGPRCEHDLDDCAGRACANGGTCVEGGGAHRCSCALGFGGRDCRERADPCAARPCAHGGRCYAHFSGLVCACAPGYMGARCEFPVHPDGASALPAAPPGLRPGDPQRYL
Put plainly: SPR (Biacore 8K), 37 C, antibody captured on anti-mouse Fc, DLL3 ECD injected, 1:1 fit. The source says: (§1) The binding kinetics of different anti-DLL3 antibodies to recombinant proteins of different domains of human DLL3 were studied by surface plasmon resonance (SPR) using a Biacore™ 8K instrument. These anti-DLL3 antibodies were produced from mouse hybridomas, and each included a heavy chain variable region and light chain variable region described herein. Briefly, antibodies recognizing human IgG Fc and antibodies recognizing mouse IgG Fc were immobilized on different channels of a Biacore™ 8K chip to allow simultaneous analysis of human and murine anti-DLL3 antibodies. Murine anti-DLL3 antibodies were captured on the anti-mouse Fc channel of the Biacore chip. The human anti-DLL3 antibody from Stemcentrx (San Francisco, Calif.) was used as a control and was captured onto anti-human Fc channel of the Biacore™ chip. Different concentrations of DLL3 ECD, DLL3 N-terminal domain, EGF2-6, EGF3-6, EGF4-6, or EGF5-6 domains of DLL3 were injected. Experiments were performed at 37° C. Biacore™ 8K evaluation software was used for all data analysis. To obtain kinetic rate constants double-referenced data were fit to a 1:1 interaction model using Biacore™ 8K Evaluation software (GE Healthcare, Marlborough, Mass.). The equilibrium binding constant KD was determined by the ratio of binding rate constants kd/kₐ.
Table 36 lists the calculated binding kinetics (KD). […] Stemcentrx anti-DLL3 antibody was used as a control.
On the technique in general: SPR reads the build-up and loss of mass on a sensor chip optically.

A further test concerns the target T3, human DLL3-His (human, UniProt Q9NYJ7 27-492).
T3 construct: also called hDLL3
T3 sequence: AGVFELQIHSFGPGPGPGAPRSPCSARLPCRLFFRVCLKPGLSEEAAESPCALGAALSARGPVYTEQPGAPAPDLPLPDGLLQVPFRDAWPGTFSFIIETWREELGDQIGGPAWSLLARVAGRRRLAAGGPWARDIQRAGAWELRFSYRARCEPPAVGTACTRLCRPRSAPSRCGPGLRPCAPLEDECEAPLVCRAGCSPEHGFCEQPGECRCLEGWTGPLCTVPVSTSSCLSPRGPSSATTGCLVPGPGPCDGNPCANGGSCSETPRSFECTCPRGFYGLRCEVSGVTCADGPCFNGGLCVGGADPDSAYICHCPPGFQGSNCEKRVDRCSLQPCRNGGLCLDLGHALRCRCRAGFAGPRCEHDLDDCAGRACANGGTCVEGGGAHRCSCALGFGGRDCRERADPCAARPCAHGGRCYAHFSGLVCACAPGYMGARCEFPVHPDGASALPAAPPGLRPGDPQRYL
Description: SPR (Biacore 8K), 37 C, m5E7 captured on anti-mouse Fc, DLL3-His 0.411-300 nM injected, 1:1 fit. From the text:
The kinetics of binding of different humanized variants and parental murine 5E7 antibody to human DLL3-His was studied by Surface Plasmon Resonance using a Biacore 8K instrument. Briefly, anti-hFc and anti-mFc IgG proteins were covalently immobilized onto different channels of CMS chip to allow simultaneous analysis of human and murine antibodies. m5E7 was captured on the anti-mouse Fc channel and humanized variants were captured on the anti-human Fc channel at a desired capture level of […] in HBS-EP+ buffer supplemented with 0.1% BSA. Three buffer blanks and human DLL3-His (analyte) at concentrations 0.411-300 nM (in three fold dilutions) were injected over the surface with captured murine or humanized 5E7 for 300 second association time and let dissociate for 600 second at a flow rate of 30 μL/min. The surfaces were subjected to regeneration with three 20-second pulses of 10 mM glycine pH 1.70 at a flow rate of 100 μL/min between every concentration of analyte. The experiment was conducted at 37° C. Data were double referenced and a 1:1 fit model was applied to the sensorgrams in the Biacore Insight Evaluation software.
The kinetic parameters of human DLL3-His binding to murine and humanized variants of 5E7 antibody variants were calculated and shown in Table 39.

The next test deals with T4, recombinant human DLL1 (human, UniProt O00548 18-540, limits assumed).
T4 sequence (looked up): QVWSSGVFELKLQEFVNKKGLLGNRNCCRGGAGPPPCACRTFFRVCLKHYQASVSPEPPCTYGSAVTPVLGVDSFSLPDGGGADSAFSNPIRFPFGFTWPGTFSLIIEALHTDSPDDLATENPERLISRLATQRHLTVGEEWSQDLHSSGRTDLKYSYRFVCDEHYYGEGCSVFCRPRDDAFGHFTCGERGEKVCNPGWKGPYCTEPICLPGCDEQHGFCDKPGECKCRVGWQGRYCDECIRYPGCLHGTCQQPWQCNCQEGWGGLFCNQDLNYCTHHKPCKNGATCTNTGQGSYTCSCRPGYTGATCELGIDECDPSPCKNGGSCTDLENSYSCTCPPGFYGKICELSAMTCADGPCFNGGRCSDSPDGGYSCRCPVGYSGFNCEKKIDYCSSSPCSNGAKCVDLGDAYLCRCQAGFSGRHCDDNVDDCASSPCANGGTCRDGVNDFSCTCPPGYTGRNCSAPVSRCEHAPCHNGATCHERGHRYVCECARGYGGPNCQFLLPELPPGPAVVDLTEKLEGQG
Description: ELISA, plate-bound recombinant human DLL1 (1 µg/mL), anti-mouse IgG-HRP/TMB, % of positive control max. The gist of the method: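 Binding read by anti-mouse IgG-HRP with TMB substrate against wells coated with recombinant human DLL1 (1 μg/ml) or DLL4 (0.5 μg/ml) to test cross-reactivity of anti-DLL3 antibodies. Signals normalized to the corresponding positive control antibody.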
(ELISA stands for enzyme-linked immunosorbent assay.)

Test [3] concerns the target T2, extracellular domain (ECD) of human …. Put plainly: SPR (Biacore 8K), 37 C, antibody captured on anti-mouse Fc; same values as in Table 36; 37 C; hDLL3 ECD construct.
Source text: as §1
Table 36 lists the calculated binding kinetics (KD). […]

B1: murine anti-DLL3 antibody clone 5E7 (antibody, V domains shown)
VH: EVQLQQSGAELVRPGASVKLSCTASGFNIKDDYIHWVKQWPEQGLEWIGWIDSENGDTEYASKFQGKATMTADTSSNTAYLQLSGLTSEDTAVYYCTTSSYYSYDLFVYWGQGTLVTVSA
VL: DVLMTQTPLTLSVPIGQPASISCKSSQSLLHSNGKTYLNWLLQRPGQSPKLLIYLVSKLESGVPDRFSGSGSGTDFTLKISRVEAEDLGVYYCLQTTHLYTFGGGTKLEIK
notes: Murine antibody produced from a mouse hybridoma, captured on anti-mouse Fc in SPR; also called m5E7; murine 5E7
For the molecule B1, in test [1], the EC50 – broadly, the concentration at which the effect is half-maximal – came out at 0.07 nM. Besides, the Kd (in general, the free concentration of one partner at which half of the binding sites on the other are occupied at equilibrium, for simple one-to-one binding) is 0.203 nM in test [2] and 1.22 nM with human DLL3-His. The koff (commonly a measure of how fast the partners let go of each other) in test [2] was determined as 6.47e-05 s⁻¹; with human DLL3-His it was 0.00145 s⁻¹. Also, the kon (usually a measure of how fast the partners come together) was 319000 M⁻¹ s⁻¹ in test [2], 1.19e+06 M⁻¹ s⁻¹ in the test with human DLL3-His and 319000 M⁻¹ s⁻¹ in test [3]. Further, in the test with recombinant human DLL1, the binding result is on record as “no binding”.
